This note sets out measurements from publication doi:10.1101/2020.07.27.223255, “Bro1 stimulates Vps4 activity to promote Intralumenal Vesicle Formation during Multivesicular Body biogenesis” (bioRxiv, 2020).

For test [1], the target named is T1, His6-Vps4 (S. cerevisiae, UniProt P52917 1-437).
T1 sequence (looked up): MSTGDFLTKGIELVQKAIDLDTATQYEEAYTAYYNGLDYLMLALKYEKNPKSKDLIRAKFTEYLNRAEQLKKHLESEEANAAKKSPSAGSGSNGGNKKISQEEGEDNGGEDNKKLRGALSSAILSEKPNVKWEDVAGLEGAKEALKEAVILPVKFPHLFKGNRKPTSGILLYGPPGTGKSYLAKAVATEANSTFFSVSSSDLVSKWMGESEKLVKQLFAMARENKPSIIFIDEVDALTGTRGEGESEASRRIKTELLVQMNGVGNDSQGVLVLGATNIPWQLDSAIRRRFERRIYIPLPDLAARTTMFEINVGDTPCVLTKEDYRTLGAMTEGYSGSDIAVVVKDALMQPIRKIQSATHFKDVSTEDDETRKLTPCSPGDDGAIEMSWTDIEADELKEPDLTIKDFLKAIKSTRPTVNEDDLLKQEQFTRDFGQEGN
Nature of the test: cell-based or functional assay.

In test [2] the target is T1, His6-Vps4. Kind of test: pull-down; His6-Vps4 (10 μg) or His6-MIT on Ni-NTA agarose; 6 μg Bro1V or mutants in ATPase buffer + 0.02% Tween20, 1 hour at 30°C; four washes NiA buffer with 10 mM imidazole; eluted with 200 mM imidazole; protein stain and anti-Bro1 immunoblot. The following applies: both partners purified.

B1: Bro1 V domain (Bro1V, aa 370-709), GST tag removed (domain or fragment, S. cerevisiae, UniProt P48582 370-709, looked up)
chain: DVYEKESIYSEEKATLLRKQVEETETANLEYSSFIEFTNLPRLLSDLEKQFSDGNIFSNTDTQGQLMRDQIQTWCKFIQTNEFRDIEEQMNKIVFKRKQILEILSALPNDQKENVTKLKSSLVAASNSDEKLFACVKPHIVEINLLNDNGKIWKKFDEFNRNTPPQPSLLDIDDTKNDKILELLKQVKGHAEDLRTLKEERSRNLSELRDEINNDDITKLLIINKGKSDVELKDLFEVELEKFEPLSTRIEATIYKQSSMIDDIKAKLDEIFHLSNFKDKSSGEEKFLEDRKNFFDKLQEAVKSFSIFASDLPKGIEFYDSLFNMSRDLAERVRVAKQTE
On to B1, for which, in test [1], the “Vps4 (0.5μM) ATPase activity with titration of Bro1V (10nM-8μM): maximal stimulation over basal activity (Vps4 of the ATPase assay came from GST-Vps4)” value came to 2.6 fold.

B2: Bro1V^M4 (V505A, H508A, I512A), GST tag removed (domain or fragment, S. cerevisiae, UniProt P48582 370-709, looked up)
chain: DVYEKESIYSEEKATLLRKQVEETETANLEYSSFIEFTNLPRLLSDLEKQFSDGNIFSNTDTQGQLMRDQIQTWCKFIQTNEFRDIEEQMNKIVFKRKQILEILSALPNDQKENVTKLKSSLVAASNSDEKLFACAKPAIVEANLLNDNGKIWKKFDEFNRNTPPQPSLLDIDDTKNDKILELLKQVKGHAEDLRTLKEERSRNLSELRDEINNDDITKLLIINKGKSDVELKDLFEVELEKFEPLSTRIEATIYKQSSMIDDIKAKLDEIFHLSNFKDKSSGEEKFLEDRKNFFDKLQEAVKSFSIFASDLPKGIEFYDSLFNMSRDLAERVRVAKQTE
notes: Bro1 V domain, S. cerevisiae, aa 370-709, mutant M4; source: E. coli BL21-DE3, purified (Glutathione Sepharose 4B, AcTEV protease to remove GST, Superdex200 size exclusion)
Turning to B2, the binding result in test [2] was “binds”.

B3: Bro1V^M10 (K481D), GST tag removed (domain or fragment, S. cerevisiae, UniProt P48582 370-709, looked up)
chain: DVYEKESIYSEEKATLLRKQVEETETANLEYSSFIEFTNLPRLLSDLEKQFSDGNIFSNTDTQGQLMRDQIQTWCKFIQTNEFRDIEEQMNKIVFKRKQILEILSALPNDQDENVTKLKSSLVAASNSDEKLFACVKPHIVEINLLNDNGKIWKKFDEFNRNTPPQPSLLDIDDTKNDKILELLKQVKGHAEDLRTLKEERSRNLSELRDEINNDDITKLLIINKGKSDVELKDLFEVELEKFEPLSTRIEATIYKQSSMIDDIKAKLDEIFHLSNFKDKSSGEEKFLEDRKNFFDKLQEAVKSFSIFASDLPKGIEFYDSLFNMSRDLAERVRVAKQTE
notes: Bro1 V domain, S. cerevisiae, aa 370-709, mutant M10; source: E. coli BL21-DE3, purified (Glutathione Sepharose 4B, AcTEV protease to remove GST, Superdex200 size exclusion)
Take B3: the binding result in test [2] is given as “binds”.

B4: Bro1V^M8 (E686A, L691D), GST tag removed (domain or fragment, S. cerevisiae, UniProt P48582 370-709, looked up)
chain: DVYEKESIYSEEKATLLRKQVEETETANLEYSSFIEFTNLPRLLSDLEKQFSDGNIFSNTDTQGQLMRDQIQTWCKFIQTNEFRDIEEQMNKIVFKRKQILEILSALPNDQKENVTKLKSSLVAASNSDEKLFACVKPHIVEINLLNDNGKIWKKFDEFNRNTPPQPSLLDIDDTKNDKILELLKQVKGHAEDLRTLKEERSRNLSELRDEINNDDITKLLIINKGKSDVELKDLFEVELEKFEPLSTRIEATIYKQSSMIDDIKAKLDEIFHLSNFKDKSSGEEKFLEDRKNFFDKLQEAVKSFSIFASDLPKGIAFYDSDFNMSRDLAERVRVAKQTE
notes: Bro1 V domain, S. cerevisiae, aa 370-709, mutant M8; source: E. coli BL21-DE3, purified (Glutathione Sepharose 4B, AcTEV protease to remove GST, Superdex200 size exclusion)
On to B4, for which the binding result in test [2] was “binds”.

B5: Bro1V^M9 (T587D), GST tag removed (domain or fragment, S. cerevisiae, UniProt P48582 370-709, looked up)
chain: DVYEKESIYSEEKATLLRKQVEETETANLEYSSFIEFTNLPRLLSDLEKQFSDGNIFSNTDTQGQLMRDQIQTWCKFIQTNEFRDIEEQMNKIVFKRKQILEILSALPNDQKENVTKLKSSLVAASNSDEKLFACVKPHIVEINLLNDNGKIWKKFDEFNRNTPPQPSLLDIDDTKNDKILELLKQVKGHAEDLRTLKEERSRNLSELRDEINNDDIDKLLIINKGKSDVELKDLFEVELEKFEPLSTRIEATIYKQSSMIDDIKAKLDEIFHLSNFKDKSSGEEKFLEDRKNFFDKLQEAVKSFSIFASDLPKGIEFYDSLFNMSRDLAERVRVAKQTE
notes: Bro1 V domain, S. cerevisiae, aa 370-709, mutant M9; source: E. coli BL21-DE3, purified (Glutathione Sepharose 4B, AcTEV protease to remove GST, Superdex200 size exclusion)
Turning to B5, the binding result in test [2] was “binds”.
